Experimental findings from article PMC3883112 (Cell reports, 2013) are described below.

For the assay, the target named is T1, GST-Pol32 (full length Pol32) (yeast (S. cerevisiae), UniProt P47110 1-350).
T1 sequence (looked up): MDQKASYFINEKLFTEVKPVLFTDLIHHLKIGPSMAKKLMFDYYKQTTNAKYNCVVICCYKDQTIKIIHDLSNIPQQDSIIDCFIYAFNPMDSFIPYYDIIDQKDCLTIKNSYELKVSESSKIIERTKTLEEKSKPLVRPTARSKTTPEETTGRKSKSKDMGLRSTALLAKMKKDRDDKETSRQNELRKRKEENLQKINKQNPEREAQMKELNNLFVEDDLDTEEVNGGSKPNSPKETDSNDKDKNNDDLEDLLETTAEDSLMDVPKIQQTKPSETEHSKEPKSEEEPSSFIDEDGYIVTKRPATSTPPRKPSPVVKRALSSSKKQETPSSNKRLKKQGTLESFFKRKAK
In words: pull-down.

B1: Rev7 used in the GST pull-down (natural protein, yeast (S. cerevisiae), UniProt P38927 1-245, looked up)
chain: MNRWVEKWLRVYLKCYINLILFYRNVYPPQSFDYTTYQSFNLPQFVPINRHPALIDYIEELILDVLSKLTHVYRFSICIINKKNDLCIEKYVLDFSELQHVDKDDQIITETEVFDEFRSSLNSLIMHLEKLPKVNDDTITFEAVINAIELELGHKLDRNRRVDSLEEKAEIERDSNWVKCQEDENLPDNNGFQPPKIKLTSLVGSDVGPLIIHQFSEKLISGDDKILNGVYSQYEEGESIFGSLF
Consider B1, for which the binding result is listed as “binds”.
